The text below walks through data of the RNAGym collection of RNA variant scans (doi:10.1073/pnas.2313332121).

B1: TPR t1 (parent)
chain: GACCAAUCUGCCCUCAGAGCUCGAGAACAUCUUCGGAUGCAGAGGAGGCAGGCUUCGGUGGCGCGAUAGCGCCAACGUCCUCAACCUCCAAUGCAUCCCACCACAUGAUGAUGCCUGAAGAGCCUUGGUUUUUUG

The variants in this series derive from B1. The series is described as follows: polymerase ribozyme fitness, log enrichment relative to wild type (log ratio); higher = more active; in vitro selection for triplet polymerase activity. In short, it runs like this:
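Mutant libraries of each subunit of a heterodimeric triplet polymerase ribozyme were built by PCR and transcribed. Each library went through one round of in vitro selection in triplicate: annealing with biotinylated primer, partner subunit and triplets, frozen incubation at −7 °C, gel excision of extended constructs, streptavidin-bead capture and RT-PCR. Input and output libraries were Illumina-sequenced; only genotypes with ≥10 input reads and ≥1 read per output were kept. Fitness is log2(genotype enrichment/wild-type enrichment), using inverse-variance-weighted replicate averages.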
For the variant A5C C13U C88A C123U, the “polymerase ribozyme fitness (log ratio)” value is 1.09.
For U59C A111U A118U, the “polymerase ribozyme fitness (log ratio)” value is -4.73.
G51A G117C: the “polymerase ribozyme fitness (log ratio)” value is -5.64.
For C13G C53A G69U C79A G120C, the “polymerase ribozyme fitness (log ratio)” value was -0.403.
Turning to G113A U125C, the “polymerase ribozyme fitness (log ratio)” value was -1.17.
Regarding G110A G122U, the “polymerase ribozyme fitness (log ratio)” value was -1.41.
The figure for G36A G48A U112A U131C is 0.386; for A29G U87C G113U A121C it is -3.46.
For the variant C49A C115G, the “polymerase ribozyme fitness (log ratio)” value was -1.85.
The figure for C3U A16U is -2.53.
The figure for G36U G69A is -4.06; for C40U U109A G120C it is -5.74; for C15U C72U it is -1.62.
U59C G71U C88U U92A: the “polymerase ribozyme fitness (log ratio)” value is -5.66.
For U54G G60U C115A the value was -3.58.
As to C70A C104A U109A G128C, the “polymerase ribozyme fitness (log ratio)” value is -7.62.
For A43U U96C C101A G122A G127A, the “polymerase ribozyme fitness (log ratio)” value is -5.79.
Turning to U38A G120U, the “polymerase ribozyme fitness (log ratio)” value amounted to 0.263.
A37C G39A G61A U112A U116G U133A: the “polymerase ribozyme fitness (log ratio)” value is -3.64.
Regarding U9G U14A G77U U92G C124U, the “polymerase ribozyme fitness (log ratio)” value is -3.63.
For C20G G44A G120C the value was -4.1.
Turning to C12U A18G A41U G47C U109G C124G, the “polymerase ribozyme fitness (log ratio)” value was -2.39.
For G71U C101G, the “polymerase ribozyme fitness (log ratio)” value is -1.83.
The figure for G35A C114G is -5.64.
On to A37G A118U, for which the “polymerase ribozyme fitness (log ratio)” value stood at 0.234.
As for A6U C20A G61U U125G, the “polymerase ribozyme fitness (log ratio)” value is -2.23.
U7G G10U C15A C56A G63C C64A C114A A121U C123G: the “polymerase ribozyme fitness (log ratio)” value was -6.92.
C49U G71C: the “polymerase ribozyme fitness (log ratio)” value is -2.01.
The figure for C22A C40A G69A C86U C97G C99G U125A is -6.51; for C40G U81C it is -1.19; for G93U C101A G113U G117A it is -6.98.
For C34G C73U the value was -5.17; for C64U A83C A100C C101G U129G, -3.82.
For U33G G48U G60A C97G G120A, the “polymerase ribozyme fitness (log ratio)” value is -7.27.
C62U A74U: the “polymerase ribozyme fitness (log ratio)” value is -0.71.
The figure for A43C U125A is -2; for U87A A105U it is -1.78; for C15U A18U C34U A41G G48C U106A A111G C124G it is -6.92.
For U109G G113A G127C the value was -6.26; for A43C G48A C56U G63A G113U U125C U131A, -6.28; for C70A G110A, -3.53.
For C8G C88A, the “polymerase ribozyme fitness (log ratio)” value is -0.193.
For U38A G45C C89U, the “polymerase ribozyme fitness (log ratio)” value was -2.34.
For G45A C53U C97U C115U U126C U130A the value was -5.76; for C70U U81A C82G, -2.96.
For C97G C102G A111G, the “polymerase ribozyme fitness (log ratio)” value is -6.52.
Take C15A A90G G93A A103U G120U: the “polymerase ribozyme fitness (log ratio)” value is -6.55.
Consider C15A C76U A83U C86A, for which the “polymerase ribozyme fitness (log ratio)” value is -3.37.
For C4A C72U G117C U131A, the “polymerase ribozyme fitness (log ratio)” value was -5.79.
The figure for C13G C82U is -2.11; for C28G A66G C123U it is -3.76; for C88A C104A A121U U130C it is 0.158.
The figure for C13U C56G G58C is -0.174; for C12U A26G G45A A84U U132C it is -3.75; for C31U U78G C101G C104A G110A it is -5.57.
The figure for A50G G52A is 0.186; for G47A U54C U59A C94G A118C U130C it is -5.44; for U9C U112A C114G it is 0.928.
On to A43U U55C U92C, for which the “polymerase ribozyme fitness (log ratio)” value was -2.54.
For A37G G42A G61A the value was -1.68; for C40U C70U A84G, -2.34; for U9G C62A U92A C104U, -4.41.
For U32C G113U the value was -2.9; for C70A U129C, -2.68; for A5U U81A, -1.15.
For C56G U116C U130G, the “polymerase ribozyme fitness (log ratio)” value is -0.701.
For A5C C34U G63C U129G the value was -4.67.
For C13U A18G G23A A46U A111G, the “polymerase ribozyme fitness (log ratio)” value was -7.19.
On to U7A C62U U129A, for which the “polymerase ribozyme fitness (log ratio)” value was -0.65.
In the case of C12G G36A C94A, the “polymerase ribozyme fitness (log ratio)” value was -3.18.
Consider U116C, for which the “polymerase ribozyme fitness (log ratio)” value is -0.392.
For G36C A50C C114U the value was -6.09; for C8U G36U C56U C82A C89G, -2.15.
On to G51C G120C, for which the “polymerase ribozyme fitness (log ratio)” value is -2.56.
In the case of C11A G60C C86U, the “polymerase ribozyme fitness (log ratio)” value was -1.76.
For U32C G69C C80U C101U C102U the value was -5.78.
For A2C C73U C76G U112G the value was -1.38.
The figure for C15U A27C C56G C73U C97U is -6.81; for C80G A119U it is -2.85.
As to G69U C99U, the “polymerase ribozyme fitness (log ratio)” value was -1.7.
With G107A G113C, the “polymerase ribozyme fitness (log ratio)” value is -5.82.
For C13U G25C C62G C82A C86A C102U U109C, the “polymerase ribozyme fitness (log ratio)” value was -7.42.
Turning to C97A A111G, the “polymerase ribozyme fitness (log ratio)” value is -5.96.
For C49U G61U C70G U81G C115G C123U U130A the value was -5.96.
